Results published in patent US20130209454A1.

How the values were obtained:
Assay in all cases: cell-based or functional assay
[1] = molecular target: HIV-1 Env of strain T250-4 (HIV-1)
[2] = molecular target: HIV-1 Env of strain 231965.c01 (HIV-1)
[3] = molecular target: HIV-1 Env of strain Q259.d2.17 (HIV-1)
[4] = molecular target: HIV-1 Env of strain SC422661.8 (HIV-1)
[5] = molecular target: Env of HIV-1 strain MS208.A1 (HIV-1)
[6] = molecular target: Env of HIV-1 strain Q842.d12 (HIV-1)
[7] = molecular target: HIV-1 Env of strain CNE58 (HIV-1)
[8] = molecular target: HIV-1 Env of strain Ce2010_F5 (HIV-1)
[9] = molecular target: Env of HIV-1 strain 0815.v3.c3 (HIV-1)
[10] = molecular target: Env of HIV-1 strain ZM197M.PB7 (HIV-1)
[11] = molecular target: Env of HIV-1 strain Ce703010054_2A2 (HIV-1)
[12] = molecular target: HIV-1 Env of strain 1056_10_TA11_1826 (HIV-1)
[13] = molecular target: Env of HIV-1 strain 3365.v2.c2 (HIV-1)
[14] = molecular target: HIV-1 Env of strain Du172.17 (HIV-1)
[15] = molecular target: HIV-1 Env of strain 928-28 (HIV-1)
[16] = molecular target: HIV-1 Env of strain PVO.4 (HIV-1)
[17] = molecular target: Env of HIV-1 strain 249M B10 (HIV-1)
[18] = molecular target: Env of HIV-1 strain 191821_E6_1 (HIV-1)
[19] = molecular target: Env of HIV-1 strain 263-8 (HIV-1)
[20] = molecular target: HIV-1 Env of strain HIV-0013095-2.11 (HIV-1)
[21] = molecular target: Env of HIV-1 strain R2184.c04 (HIV-1)
[22] = molecular target: HIV-1 Env of strain BJOX015000.11.5 (HIV-1)
[23] = molecular target: Env of HIV-1 strain CAP210.2.00.E8 (HIV-1)
[24] = molecular target: Env of HIV-1 strain TRO.11 (HIV-1)
[25] = molecular target: HIV-1 Env of strain CNE19 (HIV-1)
[26] = molecular target: HIV-1 Env of strain 3016.v5.c45 (HIV-1)
[27] = molecular target: HIV-1 Env of strain X1193_c1 (HIV-1)
[28] = molecular target: HIV-1 Env of strain 6545.v4.c1 (HIV-1)
[29] = molecular target: Env of HIV-1 strain 191955_A11 (HIV-1)
[30] = molecular target: HIV-1 Env of strain CNE21 (HIV-1)
[31] = molecular target: Env of HIV-1 strain QH0692.42 (HIV-1)
[32] = molecular target: HIV-1 Env of strain THRO4156.18 (HIV-1)
[33] = molecular target: HIV-1 Env of strain P0402_c2_11 (HIV-1)
[34] = molecular target: HIV-1 Env of strain MS208.A1 (HIV-1)
[35] = molecular target: Env of HIV-1 strain SC422661.8 (HIV-1)
[36] = molecular target: HIV-1 Env of strain 89-F1_2_25 (HIV-1)
[37] = molecular target: HIV-1 Env of strain ZM214M.PL15 (HIV-1)
[38] = molecular target: HIV-1 Env of strain 6952.v1.c20 (HIV-1)
[39] = molecular target: Env of HIV-1 strain T251-18 (HIV-1)
[40] = molecular target: Env of HIV-1 strain Q259.d2.17 (HIV-1)
[41] = molecular target: HIV-1 Env of strain 1394C9G1(Rev-) (HIV-1)
[42] = molecular target: Env of HIV-1 strain 3016.v5.c45 (HIV-1)
[43] = molecular target: Env of HIV-1 strain X1193_c1 (HIV-1)
[44] = molecular target: HIV-1 Env of strain Ce1176_A3 (HIV-1)
[45] = molecular target: HIV-1 Env of strain HIV-16845-2.22 (HIV-1)
[46] = molecular target: HIV-1 Env of strain 1054_07_TC4_1499 (HIV-1)
[47] = molecular target: Env of HIV-1 strain 6535.3 (HIV-1)
[48] = molecular target: HIV-1 Env of strain ZM247v1(Rev-) (HIV-1)
[49] = molecular target: Env of HIV-1 strain HIV-0013095-2.11 (HIV-1)
[50] = molecular target: HIV-1 Env of strain 6480.v4.c25 (HIV-1)
[51] = molecular target: HIV-1 Env of strain 6540.v4.c1 (HIV-1)

NIH45-46 (antibody), sequence (VH): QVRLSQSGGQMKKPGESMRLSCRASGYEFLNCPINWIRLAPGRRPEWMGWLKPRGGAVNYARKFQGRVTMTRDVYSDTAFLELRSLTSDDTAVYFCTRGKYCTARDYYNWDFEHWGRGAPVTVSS
NIH45-46 (antibody), sequence (V domain): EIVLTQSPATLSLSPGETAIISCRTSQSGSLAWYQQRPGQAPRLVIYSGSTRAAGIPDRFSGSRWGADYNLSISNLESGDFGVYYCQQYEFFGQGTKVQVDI

Question: With NIH45-46 (antibody) as the substance, how does the IC50, pseudovirus neutralization [1] read?
Answer: > 50 mg/L

Question: And the IC50, pseudovirus neutralization [2]?
Answer: 0.051 mg/L

Question: What about the IC50, pseudovirus neutralization [3] of the same substance?
Answer: 0.043 mg/L

Question: And the IC50, pseudovirus neutralization [4]?
Answer: 0.06 mg/L

Question: What about the IC80 [5] of the same substance?
Answer: 0.6 mg/L

Question: What about the IC80 [6] of the same substance?
Answer: 0.073 mg/L

Question: What about the IC50, pseudovirus neutralization [7] of the same substance?
Answer: 0.43 mg/L

Question: And the IC50, pseudovirus neutralization [8]?
Answer: 0.101 mg/L

Question: And the IC80 [9]?
Answer: 0.052 mg/L

Question: What about the IC80 [10] of the same substance?
Answer: 0.55 mg/L

Question: And the IC80 [11]?
Answer: 0.538 mg/L

Question: And the IC50, pseudovirus neutralization [12]?
Answer: 0.094 mg/L

Question: What about the IC80 [13] of the same substance?
Answer: 0.11 mg/L

Question: And the IC50, pseudovirus neutralization [14]?
Answer: > 50 mg/L

Question: And the IC50, pseudovirus neutralization [15]?
Answer: 0.23 mg/L

Question: And the IC50, pseudovirus neutralization [16]?
Answer: 0.12 mg/L

Question: What about the IC80 [17] of the same substance?
Answer: 0.17 mg/L

Question: What about the IC80 [18] of the same substance?
Answer: 0.46 mg/L

Question: And the IC80 [19]?
Answer: 0.1 mg/L

Question: What about the IC50, pseudovirus neutralization [20] of the same substance?
Answer: 0.01 mg/L

Question: What about the IC80 [21] of the same substance?
Answer: 0.127 mg/L

Question: What about the IC50, pseudovirus neutralization [22] of the same substance?
Answer: 0.06 mg/L

Question: And the IC80 [23]?
Answer: > 50 mg/L

Question: And the IC80 [24]?
Answer: 7.49 mg/L

Question: What about the IC50, pseudovirus neutralization [25] of the same substance?
Answer: 0.07 mg/L

Question: And the IC50, pseudovirus neutralization [26]?
Answer: > 50 mg/L

Question: What about the IC50, pseudovirus neutralization [27] of the same substance?
Answer: 0.021 mg/L

Question: What about the IC50, pseudovirus neutralization [28] of the same substance?
Answer: > 50 mg/L

Question: What about the IC80 [29] of the same substance?
Answer: 0.43 mg/L

Question: What about the IC50, pseudovirus neutralization [30] of the same substance?
Answer: 6.01 mg/L

Question: And the IC80 [31]?
Answer: 1.71 mg/L

Question: What about the IC50, pseudovirus neutralization [32] of the same substance?
Answer: 1.91 mg/L

Question: What about the IC50, pseudovirus neutralization [33] of the same substance?
Answer: 0.073 mg/L

Question: What about the IC50, pseudovirus neutralization [34] of the same substance?
Answer: 0.09 mg/L

Question: And the IC80 [35]?
Answer: 0.13 mg/L

Question: And the IC50, pseudovirus neutralization [36]?
Answer: > 50 mg/L

Question: And the IC50, pseudovirus neutralization [37]?
Answer: 0.17 mg/L

Question: And the IC50, pseudovirus neutralization [38]?
Answer: 0.02 mg/L

Question: And the IC80 [39]?
Answer: 3.68 mg/L

Question: What about the IC80 [40] of the same substance?
Answer: 0.154 mg/L

Question: And the IC50, pseudovirus neutralization [41]?
Answer: 0.09 mg/L

Question: What about the IC80 [42] of the same substance?
Answer: > 50 mg/L

Question: And the IC80 [43]?
Answer: 0.064 mg/L

Question: And the IC50, pseudovirus neutralization [44]?
Answer: 0.93 mg/L

Question: And the IC50, pseudovirus neutralization [45]?
Answer: 5 mg/L

Question: What about the IC50, pseudovirus neutralization [46] of the same substance?
Answer: 0.113 mg/L

Question: What about the IC80 [47] of the same substance?
Answer: 0.54 mg/L

Question: And the IC50, pseudovirus neutralization [48]?
Answer: 2.94 mg/L

Question: And the IC80 [49]?
Answer: 0.03 mg/L

Question: And the IC50, pseudovirus neutralization [50]?
Answer: 0.032 mg/L

Question: And the IC50, pseudovirus neutralization [51]?
Answer: > 50 mg/L
